Molecular target: commercial recombinant neutrophil elastase (NE) (UniProt P08246)
Test: cell-based or functional assay

UniProt P08246, sequence (P08246 30-247 limits assumed): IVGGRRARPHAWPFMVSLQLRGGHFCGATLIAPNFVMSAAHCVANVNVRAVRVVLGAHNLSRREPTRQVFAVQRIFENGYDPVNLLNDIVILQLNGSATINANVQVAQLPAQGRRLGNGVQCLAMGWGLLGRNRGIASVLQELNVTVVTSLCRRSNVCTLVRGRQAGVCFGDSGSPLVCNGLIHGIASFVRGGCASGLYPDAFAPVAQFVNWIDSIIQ

reduction of NE activity (elastase inhibitory activity, chromogenic substrate) at 0.65 µM WT-rhAAT: 75%
Substance: wild type recombinant human alpha-1-antitrypsin (WT-rhAAT) (from UniProt P01009 25-418)
